{"source": "the DeepSol protein solubility set"}
{"assay": "soluble on expression in E. coli; label from the status in PepcDB or PDB records"}
{"sequence": "MSHHNPLVSVVIPSKNRPDLVIATLVSVIDQTYDNIEIIVVDDGSDMPLAPLLKDRFSDRVLCLRNDQSLGGAVARNRGAQSAHGDYITFLDDDDLWLPKKLEMQVDAFSKHGVDIGVVYCGFDFLCKEEIVPRQNKFHNDYDLSIAVLSGCPFGSPTPLIRKHYFDMVGGFDRELPSCQDWDLWIRLSKVCGFYPVKESLALYRVHGDQISTNLRKKIDGRKMVLAKHYDEIKNYPRVLSAHYSRIGSLCVLADEHVEARDFFSKALASNMFDGGSFVHLVLQFLCRPLEKWLIERFSVNTIDGIKVIHLEHHHHHH", "soluble on expression in E. coli": "not soluble"}
{"sequence": "MSHIFDASVLAPHIPSNLPDNFKVRPLAKDDFSKGYVDLLSQLTSVGNLDQEAFEKRFEAMRTSVPNYHIVVIEDSNSQKVVASASLVVEMKFIHGAGSRGRVEDVVVDTEMRRQKLGAVLLKTLVSLGKSLGVYKISLECVPELLPFYSQFGFQDDCNFMTQRF", "soluble on expression in E. coli": "soluble"}
{"sequence": "MSHKLTILPFLIKFTPKFPQSIDHDEHGLNVYAFDLDHTIIKPKSPNISFSRSASDWQFINFNSKKSTLDYLCNIIDNDPTAVIVIFSNQGGVITVPRTSKSCTKYTNKILLFLKAIKNDERGETLSHRLWLYAAPKRPKTFAANHSKITFASLGESYNNDPNIFEKVRKPMTGMVEFFKRDLESAYRVSEQISPIKLNWIYYCGDAAGRKKDFSDSDIKFAENLHVEFKYPEEIFHG", "soluble on expression in E. coli": "soluble"}
{"sequence": "MSHLNYNHLYYFWMVCKQGSVTKAAEALFLTPQTVTGQIKALEDRLDGKLTKRNGRNIEPTELGQLIYKYADRMFGLSYEMLDIVNYSQQANVLFDVGVADALSKRLVSKVLSTTVPEDASIHLRCFESTHELLLEQLSQHKLDMILSDCPVDSSQNSGLFSKKLGECEMSFFCSKELKGVTFPEVLEKHKVLIPGSRTSMGRKVVQWCDQQGVTPNILGEFDDVALMKAFARENNAVFLAPSVYMNEADSDLSLHKIADVRDLKEEYYVIFAERMIQHPAVKSICEADFSHLFDF", "soluble on expression in E. coli": "not soluble"}
{"sequence": "MSHRNDSSRKHRKSRSIKNDQHYPTVSFDGAESVDIPADEGKSPVSTHLSLASNPTEFKFMDEIALLKRGRIDKDAPKHPYNRRGQQPMMKKEISVTSAHSNSSLPVRSPAIMTLMGGVPEAEKEYNVGKGGLLKISKMKEGGKRYEVSANERFTVFQQTAGQTCLFTFKA", "soluble on expression in E. coli": "not soluble"}
{"sequence": "MSHRPIAIFDFDGTLTRCDSLLPFLRQAQPVILFWLRLPFYLAMWMCYKLRLAPADRTKAAILSTVLKGKREVECRAMGQRFVPAIESILRPEALRCLEWHRSEGHRLVLLTASLLPCVEPWAEKTGFHTVIATLPEIKSGILTGRFEGNNCKGKEKIHRLDRALPHWRDSISYGYGDSPSDRPLLSLCTHSYYRRFPAL", "soluble on expression in E. coli": "not soluble"}
{"sequence": "MSHSLRYFVTAVSRPGFGEPRYMEVGYVDNTEFVRFDSDAENPRYEPRARWIEQEGPEYWERETRRAKGNEQSFRVDLRTALRYYNQSAGGSHTLQWMAGCDVESDGRLLRGYWQFAYDGCDYIALNEDLKTWTAADMAAQITRRKWEQAGAAERDRAYLEGECVEWLRRYLKNGNATLLRTDPPKAHVTHHRRPEGDVTLRCWALGFYPADITLTWQLNGEELTQEMELVETRPAGDGTFQKWASVVVPLGKEQKYTCHVEHEGLPEPLTLRWGKE", "soluble on expression in E. coli": "soluble"}
{"sequence": "MSHYGGNPRGNSSHQFGRKDFQQSDSKHIPKITGQPLPNEVQIPFDNMIYETRNPPKFEKQAKFISEYCINYDRKLQLGRMRAKKFHDKLPPNNLSLDLGKGFETFDPKEGDEKIIMLLEWINQMAPEGGRLKKVIHEADVVCWRGLITKICSTIYNKEEGWRIDAIKRKGVIFLCEEKTEQAKNRDLNQTDLDKRMSYWGHKFEQYVTLDDDAEQPDTSSPVTTKEEYAVVFRNDLQTDQRLNPEKRSIGIFYSGEVDCLDRHGNMLELKTQKGELGHGFYKYSKSFKWWLQSSLVNVDHIIVGLRTQEGHVKSLTSLRTREIPQRASWNFRAGFEFLSTIFTYILNCLEKDGDACVIEYRSEMGIHKGIQMRRVPVDEFDFVPNEFLEKFC", "soluble on expression in E. coli": "not soluble"}
{"sequence": "MSHYQCAVCSSIDANPNSLAVNYQCLADSSVVGEFHVLPRHQGYTDLLHGGIASSLLDGAMTHCLLFRDIQALTAQLDVRYHAPIELDEHVTITAHCEGERRGIYQLVAQLLVNNEVRVTAKGKFIRPKLEHHHHHH", "soluble on expression in E. coli": "soluble"}
{"sequence": "MSICDPALRNALRTLKLSGMLDTLDARLAQTRNGDLGHLEFLQALREDEIARRESAALTRRLRRAKFEAQATFEDFDFTANPKLPGAMLRDLAALRWLDAGESVILHGPVGVGKTHVAQALVHAVARRGGDVRFAKTSRMLSDLAGGHADRSWGQRIREYTKPLVLILDDFAMREHTAMHADDLYELISDRAITGKPLILTSNRAPNNWYGLFPNPVVAESLLDRLINTSHQILMDGPSYRPRKRPGRTTS", "soluble on expression in E. coli": "not soluble"}
{"sequence": "MSIKIGLLGFGTVASGIPFLLKENGEKVFAASRDQLEIAKVLVKDDEEKDRLIAAGNDYNFVTNVDEILNDEEIQIVVELMGRIEPARTFITKALEAGKNVVSANKDLIATHGKELIALAQDKGVAFYYEAAVAGGIPILRTLANSLTSDKVTRILGVLNGTSNFMMTKMVDEGWSYEDALKTAQELGYAESDPTNDVEGYDAAYKAVILSQFGFGATIDFDDVSHKGITNISTDDVAVAQELGYVIKLVGDVREVESGISAEVSPTFLPKNHPLASVNDVMNAVFVESIGIGESMYYGPGAGQKPTATSVLADIIRIARRLSDGNVGKPFNEFRRDLPLANPADVKSNYYFALDTPDEKGKILHLSEIFNSEDISFEQVLQQKANGTTARIVVITHAMSKTQLKAVTEKLEAAEDFTVVNTLKVLSNLEHHHHHH", "soluble on expression in E. coli": "soluble"}
{"sequence": "MSIKPIDFQMMIPKTAEISKIQNDQQQKSVVVNEQQTNITRQKFEENVNTVHARENAEKVRIDSEQKKKKEERGRKKNPNRAKYGTKGEKEPEEQTSVIDIRL", "soluble on expression in E. coli": "not soluble"}
{"sequence": "MSISISYSTTYSGWTVADYLADWSAYFGDVNHRPGQVVDGSNTGGFNPGPFDGSQYALKSTASDAAFIAGGDLHYTLFSNPSHTLWGKLDSIALGDTLTGGASSGGYALDSQEVSFSNLGLDSPIAQGRDGTVHKVVYGLMSGDSSALQGQIDALLKAVDPSLSINSTFDQLAAAGVAHATPAA", "soluble on expression in E. coli": "soluble"}
{"sequence": "MSISSDWIVPDWPAPPSVRALSTTRQGGVSTGPYGLAGGLPGGLNLGRHVGDGPDAVTQNRRLLRAVLPAEPAWMEQVHGTVVADLDQPLPAPVVADAAIAASPGRVCVVMTADCLPVLLCDARGVTVGAAHAGWRGLCSGVIEQTVERMTDALRACGQEADPTWLAWLGPAIGPDCFEVGAEVRQAFIDAARPDELPATRAAFAEGAADGKFLADLYALARLRLARAGCRDVHGGGLCTMTDAERFYSYRRDRTTGRMATLIWRAA", "soluble on expression in E. coli": "soluble"}
{"sequence": "MSIVPGVVHSLYGDAKARWTINEYADLECPFCKVYTPRLKRWVDSHTDVNLVWRHLPLQMHGEAARHQARLVECAGIQGGAKAFWSAIDAIFAQSAGNGGGLPGGTLDFPDLDQARLEKCAKDMDLVDQLIKTDIDTARSNGITATPTLVIQDNQTGRSVKLEGMADETTLLSAIDWLAKDL", "soluble on expression in E. coli": "not soluble"}
{"sequence": "MSKDYRSLANLSPFELKDELIKVASGKANRLMLNAGRGNPNFLATTPRRAFFRLGLFAAAESELSYSYMTVGVGGLAKLDGIEGRFERFIAEHRDQEGVKFLGKSLSYVRDQLGLDPAAFLHEMVDGILGCNYPVPPRMLTVSEQIVRQYIVREMAGGAVPPESVDLFAVEGGTAAMAYIFESLRISGLLKAGDKVAIGMPVFTPYIEIPELAQYDLKEVPIHADPDNGWQYSDAELDKLKDPDVKIFFCVNPSNPPSVKMDQRSLDRVRAIVAEQRPDLLILTDDVYGTFADEFQSLFSVCPRNTLLVYSFSKYFGATGWRLGVIAAHKDNVFDHALSQLPESAKKALDHRYRSLLPDVRSLKFIDRLVADSRVVALNHTAGLSTPQQVQMVLFSLFALMDEADAYKQALKQLIRRREATLYRELGMPPLENPNSVNYYTLIDLQNVTCRLYGEAFSQWAVQQSSTGDMLFRVADETGIVLLPGRGFGSDRPSGRASLANLNEYEYAAIGRALRRLADELYEQYKALGKEKLAAALEHHHHHH", "soluble on expression in E. coli": "soluble"}
{"sequence": "MSKFSLKLGSKTLKKNISKKTKKKNSLQKANLFDWDDAETASLSHKPQSKIKIQSIDKFDLDEESSSKKKLVIKLSENADTKKNDAPLVEYVTEKEYNEVPVEEFGDALLRGMGWESDSEQDSKGDKTQSRNKDVSNVSQIHPDGLGIGAKLNKAINVEEASFMPVVKIDKITGTKVDDDKKNKS", "soluble on expression in E. coli": "soluble"}
{"sequence": "MSKGKVCLAYSGGLDTSVILAWLLDQGYEVVAFMANVGQEEDFDAAKEKALKIGACKFVCVDCREDFVKDILFPAVQVNAVYEDVYLLGTSLARPVIAKAQIDVAKQEGCFAVSHGCTGKGNDQIRFELSFYALKPDVKCITPWRMPEFFERFAGRKDLLDYAAQKGIPVAQTKAKPWSTDENQAHISYEAGILEDPDTTPPKDMWKLIVDPMDAPDQPQDLTIDFERGLPVKLTYTDNKTSKEVSVTKPLDVFLAASNLARANGVGRIDIVEDRYINLKSRGCYEQAPLTVLRKAHVDLEGLTLDKEVRQLRDSFVTPNYSRLIYNGFLLHPECEYIRSMIQPSQNSVNGTVRVRLYKGNVIILGRSTKTEKLYDPTESSMDELTGFLPTDTTGFIAIQAIRIKKYGESKKTKGEELTL", "soluble on expression in E. coli": "soluble"}
{"sequence": "MSKIAIIGATGRAGSQLLEEALRRGHSVTAIARNTAKIGSRAGVVSRDVDVADSAALQAAVAGHDVVISAAHFSSIAANAIIDPVKKAGVKRLLVVGGAGSLLLPGGSKVIDSPGFPEEYKAEASAGGVYLETLRKEQDLDWTFLSPSAEFVEGERTGHFRLGQDDLLVSAEGRSWITFADYAIAMLDEVEKPAHSRQRFTVGYLEHHHHHH", "soluble on expression in E. coli": "not soluble"}
{"sequence": "MSKIEIYNREEALLLIEKLNNSNIEIPILLMLTLGLRLGEATGLRWTDVDLNIGSVSVSQTLIYANNKIEFKEPKTSKSRRTLSAPDELIEKLKIEKLRQNKLKLQGILKNENNLVCLNKDYNPFLPATLRKSFHRFIKKNNLKNIRMHDLRHTNASLLLLGGTNMKVVSERLGHTDIQITMNRYSHVLEEMDKKASDNLSKILEHHHHHH", "soluble on expression in E. coli": "not soluble"}
{"sequence": "MSKISQQNSTPGVNGISVIHTQAHASGLQQVPQLVPAGPGGGGKAVAPSKQSKKSSPMDRNSDEYRQRRERNNMAVKKSRLKSKQKAQDTLQRVNQLKEENERLEAKIKLLTKELSVLKDLFLEHAHNLADNVQSISTENTTADGDNAGQ", "soluble on expression in E. coli": "soluble"}
{"sequence": "MSKLAEFREAERKLQEQLALLEKLKSDSSLKQELEFKDKLQALMDKYGMTLHNIIAILDPKAPVTVSAAPQRRARALKVYKNPNNGEVVETKGGNHKVLKAWKEQYGSETVESWLQR", "soluble on expression in E. coli": "not soluble"}
{"sequence": "MSKPYLAGLLLISPWALAASGSWSSESFGGTMTRGQQSVKSKPLQSPSPLPPGARATTVHWKIKTDGLTPSGLRIRLCNAARCVRLAGWAGEMPLPAGIAPEGPFRFEYHASEAGTLRSPVTILSNQLTVSYHSSH", "soluble on expression in E. coli": "not soluble"}
{"sequence": "MSKQQPTQFINPETPGYVGFANLPNQVHRKSVKKGFEFTLMVVGESGLGKSTLINSLFLTDLYPERVIPGAAEKIERTVQIEASTVEIEERGVKLRLTVVDTPGYGDAINCRDCFKTIISYIDEQFERYLHDESGLNRRHIIDNRVHCCFYFISPFGHGLKPLDVAFMKAIHNKVNIVPVIAKADTLTLKERERLKKRILDEIEEHNIKIYHLPDAESDEDEDFKEQTRLLKASIPFSVVGSNQLIEAKGKKVRGRLYPWGVVEVENPEHNDFLKLRTMLITHMQDLQEVTQDLHYENFRSERLKRGGRKVENEDMNKDQILLEKEAELRRMQEMIARMQAQMQMQMQGGDGDGGALGHHV", "soluble on expression in E. coli": "soluble"}
